Measurements reported in patent US20230302104.

Key:
[1] = biological target: rhAAT (recombinant alpha1-antitrypsin, preparations not specified per panel)
[2] = biological target: AAT (alpha1-antitrypsin; preparation not stated in Example 15), P01009
AAT (alpha1-antitrypsin; preparation not stated in Example 15), P01009, sequence (P01009 whole entry, looked up): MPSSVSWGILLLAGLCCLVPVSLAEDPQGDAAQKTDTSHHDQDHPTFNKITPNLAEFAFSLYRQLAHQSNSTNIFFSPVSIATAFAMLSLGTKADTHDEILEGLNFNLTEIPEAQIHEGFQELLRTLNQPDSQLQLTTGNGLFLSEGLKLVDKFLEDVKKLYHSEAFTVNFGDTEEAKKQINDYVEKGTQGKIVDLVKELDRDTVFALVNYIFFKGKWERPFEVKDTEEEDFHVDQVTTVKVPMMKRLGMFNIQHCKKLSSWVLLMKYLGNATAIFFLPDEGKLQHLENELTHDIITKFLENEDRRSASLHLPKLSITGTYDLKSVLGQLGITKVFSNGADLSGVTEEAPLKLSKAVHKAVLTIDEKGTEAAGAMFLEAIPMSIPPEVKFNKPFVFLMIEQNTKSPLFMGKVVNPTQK

B1: purified human neutrophil elastase (ELA2) (protein)
chain: IVGGRRARPHAWPFMVSLQLRGGHFCGATLIAPNFVMSAAHCVANVNVRAVRVVLGAHNLSRREPTRQVFAVQRIFENGYDPVNLLNDIVILQLNGSATINANVQVAQLPAQGRRLGNGVQCLAMGWGLLGRNRGIASVLQELNVTVVTSLCRRSNVCTLVRGRQAGVCFGDSGSPLVCNGLIHGIASFVRGGCASGLYPDAFAPVAQFVNWIDSIIQ
neutrophil elastase protease activity, MeOSuc-AAPV-pNA substrate assay (Vmax, % of untreated); AAT at 1 nM and 10 nM [1]: AAT and rhAAT inhibits neutrophil elastase protease activity

B2: TMPRSS2 recombinant protein (creative biomart) (protein)
chain: WKFMGSKCSNSGIECDSSGTCINPSNWCDGVSHCPGGEDENRCVRLYGPNFILQVYSSQRKSWHPVCQDDWNENYGRAACRDMGYKNNFYSSQGIVDDSGSTSFMKLNTSAGNVDIYKKLYHSDACSSKAVVSLRCIACGVNLNSSRQSRIVGGESALPGAWPWQVSLHVQNVHVCGGSIITPEWIVTAAHCVEKPLNNPWHWTAFAGILRQSFMFYGAGYQVEKVISHPNYDSKTKNNDIALMKLQKPLTFNDLVKPVCLPNPGMMLQPEQLCWISGWGATEEKGKTSEVLNAAKVLLIETQRCNSRYVYDNLITPAMICAGFLQGNVDSCQGDSGGPLVTSKNNIWWLIGDTSWGSGCAKAYRPGVYGNVMVFTDWIYRQMRADG
TMPRSS2 protease activity (cleavage of Boc-QAR-AMC peptide, fluorescence, Vmax) [2]: AAT inhibits TMPRSS2 protease activity
